pKd: −log10 of the molar value.
Columns and labels:
WT mRBP4 = biological target: T1, WT mRBP4 (Mus musculus, UniProt Q00724); assay: Immunization of mice with mRBP4 variants (RIMMS), serum IgG titers by ELISA; format: in vivo; settings: Bcl2 mice (FIG. 19), C57BL/6 mice (FIG. 26), RIMMS protocol
T1 construct: The cDNA encoding murine RBP4 (aa 19-201); made in house; host or cells: E. coli BL21(DE3)
Protocol: 30 μl of 0.5 μg/ml protein was used to coat the wells of Maxisorp 384-well plates (Nunc, Rochester, N.Y.) overnight at 4° C. After washing with PBS+0.05% Tween 20 (PBST), the coated plates were blocked with 80 μl of 1% BSA in PBS, and washed again with PBST. The plates were sequentially incubated with 20 μl of primary antibody or serum diluted in 1% BSA in PBS, 20 μl of HRP-conjugated goat anti-mouse IgG or anti-mouse IgM (Jackson ImmunoResearch Laboratories, West Grove, Pa.), and 20 μl of TMB substrate (KPL, Gaithersburg, Md.), and read at an absorbance of 650 nm. Between incubations, the plates were washed at least six times with PBST.
Before measurement, serum samples were diluted 1:1,000 with 1% BSA in PBS buffer.

[1] = TR-FRET retinol binding assay of mRBP4 proteins; settings: retinol binding affinities of mRBP4 proteins
Protocol: The binding affinities of mRBP4 proteins were determined by a TR-FRET retinol binding assay.
WT and pNO2Phe mRBP4 mutant proteins were labeled with biotin using the Sulfo-NHS-Biotin kit (Pierce, Rockford, Ill.) according to manufacturer instructions. For determination of retinol binding activity, 10 nM biotin-labeled RBP4 was mixed with 1 nM Streptavidin-Europium chelate (LANCE® Eu-W8044 Streptavidin, Perkin Elmer, Foster City, Calif.). Increasing concentrations of Cy5-labeled retinol were added to the reaction and retinol binding was assessed by homogeneous time-resolved fluorescence resonance energy transfer (TR-FRET).

serum IgG titers against WT mRBP4 (WT mRBP4): insignificant serum IgG titers
pKd [1]: 6.77
Substance: WT mRBP4: wild-type murine retinol binding protein 4, N-terminal His6-tagged, expressed in E. coli

Reference: patent US8318172B2, “Breaking immunological tolerance with a genetically encoded unnatural amino acid” (The Scripps Research Institute, priority 2008, dated 2012)
